PMC10703879 (2023)

T1: BCMAECD-Fc (dimerized, Fc-tagged human BCMA extracellular domain) (human, UniProt Q02223-1 1-54, not fully specified)
T1 chain: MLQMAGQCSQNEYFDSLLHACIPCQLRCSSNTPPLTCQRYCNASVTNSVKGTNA

T2: BCMAECD-His (monomeric, His-tagged human BCMA extracellular domain) (human, UniProt Q02223-1 1-54)
T2 chain: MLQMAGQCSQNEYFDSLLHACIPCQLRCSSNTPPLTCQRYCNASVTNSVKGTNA


Columns and labels:
[1] = molecular target: T1, BCMAECD-Fc (dimerized, Fc-tagged human …); assay: SPR
[2] = molecular target: T2, BCMAECD-His (monomeric, His-tagged …); assay: SPR

| Binder | koff [1] [s⁻¹] | koff [2] [s⁻¹] |
| --- | --- | --- |
| Nb1 (anti-BCMA nanobody 1 of the cilta-cel CAR) (VHH) VHH: QVKLEESGGGLVQAGRSLRLSCAASEHTFSSHVMGWFRQAPGKERESVAVIGWRDISTSYADSVKGRFTISRDNAKKTLYLQMNSLKPEDTAVYYCAARRIDAADFDSWGQGTQVTVSS | 2.94e-05 | 6.52e-05 |
| Nb2 (anti-BCMA nanobody 2 of the cilta-cel CAR) (VHH) VHH: EVQLVESGGGLVQAGGSLRLSCAASGRTFTMGWFRQAPGKEREFVAAISLSPTLAYYAESVKGRFTISRDNAKNTVVLQMNSLKPEDTALYYCAADRKSVMSIRPDYWGQGTQVTVSS | 0.0108 | 0.0264 |
